Substitutions are numbered along the chain they refer to. In names and notes the source's numbering stands.
B1: UFC1 (enzyme)
chain: MADEATRRVVSEIPVLKTNAGPRDRELWVQRLKEEYQSLIRYVENNKNADNDWFRLESNKEGTRWFGKCWYIHDLLKYEFDIEFDIPITYPTTAPEIAVPELDGKTAKMYRGGKICLTDHFKPLWARNVPKFGLAHLMALGLGPWLAVEIPDLIQKGVIQHKEKCNQ
notes: free UFC1 in SEC and ITC; also called E2
B2: UFC1(D50A) (enzyme)
chain: B1 chain with D50A

Assays:
[1] = target: T1, E3mUU(ΔUFIM) with UFBP1(R265A) (UniProt O94874 1-179; Q96HY6 204-314, R265A); assay: SEC; analytical SEC, Superdex 200 Increase 3.2/300, 25 mM HEPES pH 7.5, 200 mM NaCl, 0.5 mM TCEP; components mixed and kept on ice before loading; peak fractions on Coomassie gels; conditions: both partners purified
T1 construct: UFL1; limits as stated for the crystallised E3mUU(ΔUFIM) construct; UFBP1 204-C; limits as for m14; source: recombinant, purified (HisTrap, HiLoad 26/600 Superdex 75 pg)

E3mUU(ΔUFIM) = target: T2, E3mUU(ΔUFIM) (UniProt O94874 1-179; Q96HY6 204-314); assay: as above; conditions: both partners purified
T2 construct: UFL1; limits as stated for the crystallised E3mUU(ΔUFIM) construct; for the crystal 6×His-TEV-UFL1(1–179) was co-expressed with a UFC1-UFBP1 204-C fusion and the His tag was not cleaved; source: recombinant, purified (HisTrap, HiLoad 26/600 Superdex 75 pg)

Binder | binding result [1] | binding result (E3mUU(ΔUFIM))
B1 | binds | –
B2 | – | binds

— PMC10937380 (Nature, 2024)
